Source: the Human Domainome abundance scans (Beltran et al. 2025)
± gives the uncertainty stated by the source.

B1: Gamma-crystallin S, residues 96 to 176; numbered along this chain, P22914 (parent)
chain: IQIFEKGDFSGQMYETTEDCPSIMEQFHMREIHSCKVLEGVWIFYELPNYRGRQYLLDKKEYRKPIDWGAASPAVQSFRRI

Variants of: B1
Assay: abundance fitness (aPCA) (normalised: wild type 0, dead -1); higher = more abundant; growth selection in yeast, the domain comes from the species named
Conditions: Homo sapiens

Variant	abundance fitness
IQIFEKGDFSGQMYETTEDCPSIMEQFHMREIHSCKVLEGVWIFYELPNYRGRQYLLDKKEYRKPITWGAASPAVQSFRRI [D67T]	-0.262 ± 0.35
IQIFEKGDFSGQMYETTEDCPSIMEQFHMREIHSCKVLEGVWIFYELPNYRGRQYLLDKKEYRKPIWWGAASPAVQSFRRI [D67W]	0.053 ± 0.18
IQIFEKGDFSGQMYETTEDCPSIMEQFHMREIHSCKVLEGVWIFYELPNYRGRQYLLDKKEYRKPIYWGAASPAVQSFRRI [D67Y]	-0.144 ± 0.27
IQIFEKGDFSGQMYETTEDCPSIMEQFHMREIHSCKVLEGVWIFYELPNYRGRQYLLDKKEYRKPIRWGAASPAVQSFRRI [D67R]	0.146 ± 0.12
IQIFEKGDFSGQMYETTEDCPSIMEQFHMREIHSCKVLEGVWIFYELPNYRGRQYLLDKKEYRKPISWGAASPAVQSFRRI [D67S]	0.037 ± 0.11
IQIFEKGDFSGQMYETTEDCPSIMEQFHMREIHSCKVLEGVWIFYELPNYRGRQYLLDKKEYRKPILWGAASPAVQSFRRI [D67L]	-0.321 ± 0.15
IQIFEKGDFSGQMYETTEDCPSIMEQFHMREIHSCKVLEGVWIFYELPNYRGRQYLLDKKEYRKPIQWGAASPAVQSFRRI [D67Q]	-0.034 ± 0.28
IQIFEKGDFSGQMYETTEDCPSIMEQFHMREIHSCKVLEGVWIFYELPNYRGRQYLLDKKEYRKPIPWGAASPAVQSFRRI [D67P]	-0.154 ± 0.12
IQIFEKGDFSGQMYETTEDCPSIMEQFHMREIHSCKVLEGVWIFYELPNYRGRQYLLDKKEYRKPIDWMAASPAVQSFRRI [G69M]	0.052 ± 0.23
IQIFEKGDFSGQMYETTEDCPSIMEQFHMREIHSCKVLEGVWIFYELPNYRGRQYLLDKKEYRKPIDWPAASPAVQSFRRI [G69P]	-0.294 ± 0.18
IQIFEKGDFSGQMYETTEDCPSIMEQFHMREIHSCKVLEGVWIFYELPNYRGRQYLLDKKEYRKPIDWKAASPAVQSFRRI [G69K]	-0.127 ± 0.18
IQIFEKGDFSGQMYETTEDCPSIMEQFHMREIHSCKVLEGVWIFYELPNYRGRQYLLDKKEYRKPIDWDAASPAVQSFRRI [G69D]	-0.155 ± 0.13
IQIFEKGDFSGQMYETTEDCPSIMEQFHMREIHSCKVLEGVWIFYELPNYRGRQYLLDKKEYRKPIDWEAASPAVQSFRRI [G69E]	0.006 ± 0.21
IQIFEKGDFSGQMYETTEDCPSIMEQFHMREIHSCKVLEGVWIFYELPNYRGRQYLLDKKEYRKPIDWSAASPAVQSFRRI [G69S]	0.071 ± 0.1
IQIFEKGDFSGQMYETTEDCPSIMEQFHMREIHSCKVLEGVWIFYELPNYRGRQYLLDKKEYRKPIDWRAASPAVQSFRRI [G69R]	0.012 ± 0.11
IQIFEKGDFSGQMYETTEDCPSIMEQFHMREIHSCKVLEGVWIFYELPNYRGRQYLLDKKEYRKPIDWCAASPAVQSFRRI [G69C]	-0.242 ± 0.21
IQIFEKGDFSGQMYETTEDCPSIMEQFHMREIHSCKVLEGVWIFYELPNYRGRQYLLDKKEYRKPIDWQAASPAVQSFRRI [G69Q]	-0.166 ± 0.19

Variant	abundance fitness
IQIFEKGDFSGQMYETTEDCPSIMEQFHMREIHSCKVLEGVWIFYELPNYRGRQYLLDKKEYRKPIDWLAASPAVQSFRRI [G69L]	0.022 ± 0.13
IQIFEKGDFSGQMYETTEDCPSIMEQFHMREIHSCKVLEGVWIFYELPNYRGRQYLLDKKEYRKPIDWIAASPAVQSFRRI [G69I]	0.09 ± 0.22
IQIFEKGDFSGQMYETTEDCPSIMEQFHMREIHSCKVLEGVWIFYELPNYRGRQYLLDKKEYRKPIDWVAASPAVQSFRRI [G69V]	-0.05 ± 0.12
IQIFEKGDFSGQMYETTEDCPSIMEQFHMREIHSCKVLEGVWIFYELPNYRGRQYLLDKKEYRKPIDWWAASPAVQSFRRI [G69W]	-0.018 ± 0.12
IQIFEKGDFSGQMYETTEDCPSIMEQFHMREIHSCKVLEGVWIFYELPNYRGRQYLLDKKEYRKPIDSGAASPAVQSFRRI [W68S]	0.006 ± 0.085
IQIFEKGDFSGQMYETTEDCPSIMEQFHMREIHSCKVLEGVWIFYELPNYRGRQYLLDKKEYRKPIDPGAASPAVQSFRRI [W68P]	-0.289 ± 0.15
IQIFEKGDFSGQMYETTEDCPSIMEQFHMREIHSCKVLEGVWIFYELPNYRGRQYLLDKKEYRKPIDGGAASPAVQSFRRI [W68G]	-0.139 ± 0.11
IQIFEKGDFSGQMYETTEDCPSIMEQFHMREIHSCKVLEGVWIFYELPNYRGRQYLLDKKEYRKPIDKGAASPAVQSFRRI [W68K]	-0.067 ± 0.15
IQIFEKGDFSGQMYETTEDCPSIMEQFHMREIHSCKVLEGVWIFYELPNYRGRQYLLDKKEYRKPIDLGAASPAVQSFRRI [W68L]	-0.044 ± 0.17
IQIFEKGDFSGQMYETTEDCPSIMEQFHMREIHSCKVLEGVWIFYELPNYRGRQYLLDKKEYRKPIDTGAASPAVQSFRRI [W68T]	0.089 ± 0.2
IQIFEKGDFSGQMYETTEDCPSIMEQFHMREIHSCKVLEGVWIFYELPNYRGRQYLLDKKEYRKPIDYGAASPAVQSFRRI [W68Y]	-0.425 ± 0.45
IQIFEKGDFSGQMYETTEDCPSIMEQFHMREIHSCKVLEGVWIFYELPNYRGRQYLLDKKEYRKPIDEGAASPAVQSFRRI [W68E]	-0.059 ± 0.14
IQIFEKGDFSGQMYETTEDCPSIMEQFHMREIHSCKVLEGVWIFYELPNYRGRQYLLDKKEYRKPIDAGAASPAVQSFRRI [W68A]	-0.167 ± 0.14
IQIFEKGDFSGQMYETTEDCPSIMEQFHMREIHSCKVLEGVWIFYELPNYRGRQYLLDKKEYRKPIDRGAASPAVQSFRRI [W68R]	-0.169 ± 0.11
IQIFEKGDFSGQMYETTEDCPSIMEQFHMREIHSCKVLEGVWIFYELPNYRGRQYLLDKKEYRKPIDCGAASPAVQSFRRI [W68C]	-0.026 ± 0.18
IQIFEKGDFSGQMYETTEDCPSIMEQFHMREIHSCKVLEGVWIFYELPNYRGRQYLLDKKEYRKPIDMGAASPAVQSFRRI [W68M]	0.131 ± 0.14
IQIFEKGDFSGQMYETTEDCPSIMEQFHMREIHSCKVLEGVWIFYELPNYRGRQYLLDKKEYRKPIDWGDASPAVQSFRRI [A70D]	-0.017 ± 0.16
